Assay results as given in US20170355773A1.
Changes are numbered by the printed parent chain. Each block holds one binder with its values, some of them ahead of it.

Tests used:
TNFRSF25-Fc protein [1] = molecular target: TNFRSF25-Fc protein (UniProt Q93038); test: single point capture ELISA: scFv on anti-c-myc, biotinylated antigen, streptavidin-HRP
TNFRSF25-Fc protein [2] = molecular target: TNFRSF25-Fc protein (UniProt Q93038); test: capture ELISA, scFv, against the wild-type

B1: 27A3 (scFv mutant of W3072-z4C12) (scFv, V domains shown, not shown: small tags and cut ends)
VH: EVQLVESGGGLSQPGNSLQLSCEASGFTFSNHDLNWVRQAPGKGLEWVAYISSASGLISYADAVRGRFTISRDNAKNSLFLQMNNLKSEDTAMYYCARDPPYTGLYALDFWGQGTQVTVSS
VL: QPVLTQSPSASASLSGSVKLTCTLSSELSSYTIVWYQQRPDKAPKYVMYLKSDGSHSKGDGIPDRFSGSSSGAHRYLSISNVQSEDDATYFCGAGYTLAGQYGWVFGSGTKVTVL
- OD450 (TNFRSF25-Fc protein [1]): 1.61

B2: 42G2 (scFv mutant of W3072-z4C12) (scFv, V domains shown, not shown: small tags and cut ends)
VH: B1 VH with T103S
VL: B1 VL with S30W
- fold increase in ELISA signal (TNFRSF25-Fc protein [2]): > 10 fold
- OD450 (TNFRSF25-Fc protein [1]): 3.19

B6: 42F9 (scFv mutant of W3072-z4C12) (scFv, V domains shown, not shown: small tags and cut ends)
VH: B1 VH with T103S
VL: B1 VL with S30F
- OD450 (TNFRSF25-Fc protein [1]): 2.33

The next lines start with the values.

- OD450 (TNFRSF25-Fc protein [1]): 1.67
B3: 42H8 (scFv mutant of W3072-z4C12) (scFv, V domains shown, not shown: small tags and cut ends)
VH: B1 VH with T103S
VL: B1 VL with S30Y

- OD450 (TNFRSF25-Fc protein [1]): 1.6
B4: 43F11 (scFv mutant of W3072-z4C12) (scFv, V domains shown, not shown: small tags and cut ends)
VH: B1 VH with T103S
VL: B1 VL with Y31F

- OD450 (TNFRSF25-Fc protein [1]): 0.4
B5: 66B8 (scFv mutant of W3072-z4C12) (scFv, V domains shown, not shown: small tags and cut ends)
VH: B1 VH with T103S
VL: B1 VL with G100N
